By Kd is commonly meant the equilibrium constant for the complex coming apart. Lower therefore signals higher affinity. Broadly, the koff is a measure of how fast the partners let go of each other. Low readings indicate a long-lived complex, high ones a short-lived complex.

The chains are these.
T1: ALK2-FC (UniProt Q04771 21-123, limits assumed)
T1 construct: Only the embodiments speak of 'human ALK2'; not shown: Fc part
T1 sequence (looked up): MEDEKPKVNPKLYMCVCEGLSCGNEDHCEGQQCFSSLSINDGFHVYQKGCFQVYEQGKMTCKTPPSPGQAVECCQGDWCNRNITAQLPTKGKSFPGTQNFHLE

B1: Antibody 8, monovalent fAB in fAB-FH format (Fab, V domains shown)
VH: EVQLLESGGGLVQPGGSLRLSCAASGFTFSDYAMHWVRQAPGKGLEWVSSIFYSGSNTYYADSVKGRFTISRDNSKNTLYLQMNSLRAEDTAVYYCARPKSYASGPFAYWGQGTLVTVSS
VL: DIELTQPPSVSVSPGQTASITCSGDALRYYIAHWYQQKPGQAPVLVIYYNNNRPSGIPERFSGSNSGNTATLTISGTQAEDEADYYCQSYGPGSVVFGGGTKLTVLG
notes: also called Anti-ALK2 fAB
B2: Antibody 9, monovalent fAB in fAB-FH format (Fab, V domains shown)
VH: QVQLVQSGAEVKKPGSSVKVSCKASGGTFSTHAISWVRQAPGQGLEWMGLIQPRFGTANYAQKFQGRVTITADESTSTAYMELSSLRSEDTAVYYCARDYYGGMAYWGQGTLVTVSS
VL: DIVLTQPPSVSGAPGQRVTISCSGSSSNIGQNYVSWYQQLPGTAPKLLIYDNSKRPSGVPDRFSGSKSGTSASLAITGLQAEDEADYYCSSWDLLSKSRVFGGGTKLTVLG
notes: also called Anti-ALK2 fAB
B3: Antibody 6, monovalent fAB in fAB-FH format (Fab, V domains shown)
VH: EVQLLESGGGLVQPGGSLRLSCAASGFTFGRFVMHWVRQAPGKGLEWVSVIGYSGSSTYYADSVKGRFTISRDNSKNTLYLQMNSLRAEDTAVYYCAREPGYYYPSGYYRGPGYWMDVWGQGTLVTVSS
VL: DIQMTQSPSSLSASVGDRVTITCRASQGISGNWLTWYQQKPGKAPKLLIYDASNLQSGVPSRFSGSGSGTDFTLTISSLQPEDFATYYCHQSYRGPMTFGQGTKVEIKR
notes: also called Anti-ALK2 fAB
B4: Antibody 3, monovalent fAB in fAB-FH format (Fab, V domains shown)
VH: EVQLVESGGGLVKPGGSLRLSCAASGFTFNSSAMSWVRQAPGKGLEWVGRIKSKRDGYTTDYAAPVKGRFTISRDDSKNTLYLQMNSLKTEDTAVYYCARDYGGLKFDYWGQGTLVTVSS
VL: DIELTQPPSVSVSPGQTASITCSGDNIGTKYAYWYQQKPGQAPVLVIYGDSDRPSGIPERFSGSNSGNTATLTISGTQAEDEADYYCYSADAQQMKAVFGGGTKLTVLG
notes: also called Anti-ALK2 fAB
B5: Antibody 2, monovalent fAB in fAB-FH format (Fab, V domains shown)
VH: EVQLVESGGGLVKPGGSLRLSCAASGFTFSSHAMSWVRQAPGKGLEWVGRIKSKADSGTTDYAAPVKGRFTISRDDSKNTLYLQMNSLKTEDTAVYYCARDYGVAFAYWGQGTLVTVSS
VL: DIELTQPPSVSVSPGQTASITCSGDSIPSFFASWYQQKPGQAPVLVIYRDSNRPSGIPERFSGSNSGNTATLTISGTQAEDEADYYCYVTAPWKSIWVFGGGTKLTVLG
notes: also called Anti-ALK2 fAB
B6: Antibody 1, monovalent fAB in fAB-FH format (Fab, V domains shown)
VH: QVQLVQSGAEVKKPGSSVKVSCKASGGTFSSYGVSWVRQAPGQGLEWMGGIIPHFGIANYAQKFQGRVTITADESTSTAYMELSSLRSEDTAVYYCAREIGSLDIWGQGTLVTVSS
VL: DIVLTQPPSVSGAPGQRVTISCSGSSSNIGSNYVSWYQQLPGTAPKVLIYKNNHRPSGVPDRFSGSKSGTSASLAITGLQAEDEADYYCASWDHSDRFYVFGGGTKLTVLG
notes: also called Anti-ALK2 fAB
B7: Antibody 5, monovalent fAB in fAB-FH format (Fab, V domains shown)
VH: EVQLLESGGGLVQPGGSLRLSCAASGFTFSSAAMHWVRQAPGKGLEWVSVISSDGGSTYYADSVKGRFTISRDNSKNTLYLQMNSLRAEDTAVYYCARAGFILGSLGVAWMDVWGQGTLVTVSS
VL: DIELTQPPSVSVSPGQTASITCSGDSLGSKSVHWYQQKPGQAPVLVIYRDSKRPSGIPERFSGSNSGNTATLTISGTQAEDEADYYCQTYDWSHFGWVFGGGTKLTVLG
B8: Antibody 4, monovalent fAB in fAB-FH format (Fab, V domains shown)
VH: QVQLVQSGAEVKKPGSSVKVSCKASGGTFSSYAIHWVRQAPGQGLEWMGRIIPDFGTANYAQKFQGRVTITADESTSTAYMELSSLRSEDTAVYYCARGPTQAIHYFAYWGQGTLVTVSS
VL: DIELTQPPSVSVSPGQTASITCSGDNLRKYSAHWYQQKPGQAPVLVIYYDNKRPSGIPERFSGSNSGNTATLTISGTQAEDEADYYCQVYASVHRMVFGGGTKLTVLG
notes: also called Anti-ALK2 fAB

The target in the first test is ALK2 on C2C12-BRE-Luciferase cells.
ALK2 on C2C12-BRE-Luciferase cells, sequence (P37172 whole entry): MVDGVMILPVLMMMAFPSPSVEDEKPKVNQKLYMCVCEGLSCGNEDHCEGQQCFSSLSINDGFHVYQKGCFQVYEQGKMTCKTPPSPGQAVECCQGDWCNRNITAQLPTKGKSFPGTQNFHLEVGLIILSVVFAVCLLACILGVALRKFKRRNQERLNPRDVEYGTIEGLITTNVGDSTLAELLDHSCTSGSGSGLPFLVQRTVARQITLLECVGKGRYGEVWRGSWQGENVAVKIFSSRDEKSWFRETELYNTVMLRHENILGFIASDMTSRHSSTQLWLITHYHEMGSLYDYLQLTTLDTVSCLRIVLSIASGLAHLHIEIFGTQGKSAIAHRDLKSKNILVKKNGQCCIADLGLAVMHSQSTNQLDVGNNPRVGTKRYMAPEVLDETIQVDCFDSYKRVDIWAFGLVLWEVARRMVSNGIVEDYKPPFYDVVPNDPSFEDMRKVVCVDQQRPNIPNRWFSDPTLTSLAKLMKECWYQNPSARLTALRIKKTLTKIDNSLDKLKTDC
Experiment: not given
The molecule B1 had an IC50, inhibition of BMP6 (40 ng/mL)-induced SMAD1 (BRE) luciferase signal in C2C12 cells; fit type not given of 0.367 µg/mL.
On the same count and under the same terms, to B2 belongs 1.27 µg/mL; to B3, 1.16 µg/mL.

In the next test the target is T1, ALK2-FC. Description: BLI, ForteBio Octet; fAB against ALK2-FC. (In general: BLI is a label-free optical method that tracks binding on a fibre tip over time.)
B4 came in with an equilibrium dissociation constant (Kd) of 4.4 nM.
On the same count and under the same terms, the figure for B5 is 0.7 nM.

In a further test the target is T1, ALK2-FC. Description: BLI, ForteBio Octet; fAB against ALK2-FC; fAB, ForteBio Octet against ALK2-FC.
In the case of B6, the Kd worked out at 4 nM.

The next test addresses ALK2 on C2C12-BRE-Luciferase cells.
Experiment: not given
This is another data set of the same source.
Consider B7, for which the IC50 (3 Param fit), inhibition of BMP6 (40 ng/mL)-induced SMAD1 (BRE) luciferase signal in C2C12 cells, ng/mL is the unit of the x axis worked out at 710 ng/mL and the IC50 (4 Param fit), inhibition of BMP6 (40 ng/mL)-induced SMAD1 (BRE) luciferase signal in C2C12 cells, ng/mL is the unit of the x axis came to 754 ng/mL.
Taken in the same sequence, the figures for B6 were 1750 ng/mL and 1830 ng/mL.
The matching figures for B4: 1460 ng/mL and 1490 ng/mL.
Taken in the same sequence, the figures for B5 were 145 ng/mL and 221 ng/mL.
The molecule B8 showed an IC50 (3 Param fit), inhibition of BMP6 (40 ng/mL)-induced SMAD1 (BRE) luciferase signal in C2C12 cells, ng/mL is the unit of the x axis of 465 ng/mL and an IC50 (4 Param fit), inhibition of BMP6 (40 ng/mL)-induced SMAD1 (BRE) luciferase signal in C2C12 cells, ng/mL is the unit of the x axis of 462 ng/mL.

The target in another test is T1, ALK2-FC. Briefly: BLI, ForteBio Octet RED384; monovalent fAB-FH against ALK2-FC.
As to B1, the Kd came out at 6.3 nM and the dissociation rate constant (koff) was 0.00576 s⁻¹.
For the molecule B6, binding was characterised by a dissociation constant (Kd) of 4 nM and the koff amounted to 0.00172 s⁻¹.
In turn, B4 came in with a Kd of 4.4 nM and a koff of 0.00149 s⁻¹.
Taken in the same sequence, the figures for B5 were 0.7 nM and 0.000357 s⁻¹.
B8: binding was put at a Kd of 1.8 nM and the koff came out at 0.000759 s⁻¹.
The matching figures for B2: 14 nM and 0.0149 s⁻¹.
Taken in the same sequence, the figures for B3 were 2.9 nM and 0.00349 s⁻¹.
